Results reported in PMC5342555, “ATAD2 is an epigenetic reader of newly synthesized histone marks during DNA replication” (Oncotarget, 2016).
Residue numbers refer to the chain shown, from its start. In names and notes the source's numbering stands. Blank lines part the entries; values can stand above or below the molecule they belong to.

Test system: HDAC1 binding to H4K5,12diac
Assay: In vitro competition with HDAC1 for immobilized H4K5,12diac peptides (direct binding pull down)
Conditions: for competition with HDAC1 for interaction with H4K5,12diac: full length ATAD2 0.22 μM pre-incubated 2 h, then 0.1 μM HDAC1 2 h, 1 μM peptide
Method: H4 peptides (1-25) conjugated with Biotin was immobilized on Streptavidin-coupled Dynabeads for 2 hours at 4 °C and incubated with nuclear extract from MCF7 cells. Nuclear extract was prepared by first isolating nucleus in hypotonic buffer (10 mM Tris-HCl pH 8.5, 10 mM NaCl, 0.5 mM TCEP and 0.1 % NP-40) and disrupting nuclear envelop in high salt buffer (20 mM Tris-HCl pH 8.5, 420 mM NaCl, 0.5 mM TCEP, 0.1 % Triton X-100, 25 % Glycerol) for 2 hours at 4 °C. Soluble nuclear extract was harvested by centrifugation at 20000 g for 20 min and diluted to 1:3 in buffer without NaCl in order to achieve physiological salt concentration, 140 mM. The nuclear extract was incubated with the immobilized peptides on the Streptavidin-Dynabeads overnight at 4 °C. Next day, the beads were washed three times with washing buffer (20 mM Tris-HCl pH 8.5, 140 mM NaCl, 0.5 mM TCEP, 0.1 % Triton X-100, 25 % Glycerol) and twice with high salt buffer. Bound proteins were recovered by boiling the beads in 1X sample buffer for 5 min. at 95 °C and analyzed by SDS-PAGE and Western Blotting. For direct binding experiments 1 μM of immobilized histone peptides on Streptavidin-Dynabeads were incubated with indicated amounts of ligands for 2 hours at 4 °C. After stringent washing as described above, bound proteins were analyzed in Western Blotting.

competition with HDAC1 for binding to H4K5,12diac peptides (increasing amount of ATAD2^342-1390 2 h, then 0.1 μM recombinant HDAC1 2 h, 1 μM immobilized peptide): outcompeted
B1: ATAD2^342-1390: recombinant FLAG-tagged ATAD2 residues 342 to 1390, purified from Sf9 cells (protein)
chain: SPYCKRMNRRRHAIHSSDSTSSSSSEDEQHFERRRKRSRNRAINRCLPLNFRKDELKGIYKDRMKIGASLADVDPMQLDSSVRFDSVGGLSNHIAALKEMVVFPLLYPEVFEKFKIQPPRGCLFYGPPGTGKTLVARALANECSQGDKRVAFFMRKGADCLSKWVGESERQLRLLFDQAYQMRPSIIFFDEIDGLAPVRSSRQDQIHSSIVSTLLALMDGLDSRGEIVVIGATNRLDSIDPALRRPGRFDREFLFSLPDKEARKEILKIHTRDWNPKPLDTFLEELAENCVGYCGADIKSICAEAALCALRRRYPQIYTTSEKLQLDLSSINISAKDFEVAMQKMIPASQRAVTSPGQALSTVVKPLLQNTVDKILEALQRVFPHAEFRTNKTLDSDISCPLLESDLAYSDDDVPSVYENGLSQKSSHKAKDNFNFLHLNRNACYQPMSFRPRILIVGEPGFGQGSHLAPAVIHALEKFTVYTLDIPVLFGVSTTSPEETCAQVIREAKRTAPSIVYVPHIHVWWEIVGPTLKATFTTLLQNIPSFAPVLLLATSDKPHSALPEEVQELFIRDYGEIFNVQLPDKEERTKFFEDLILKQAAKPPISKKKAVLQALEVLPVAPPPEPRSLTAEEVKRLEEQEEDTFRELRIFLRNVTHRLAIDKRFRVFTKPVDPDEVPDYVTVIKQPMDLSSVISKIDLHKYLTVKDYLRDIDLICSNALEYNPDRDPGDRLIRHRACALRDTAYAIIKEELDEDFEQLCEEIQESRKKRGCSSSKYAPSYYHVMPKQNSTLVGDKRSDPEQNEKLKTPSTPVACSTPAQLKRKIRKKSNWYLGTIKKRRKISQAKDDSQNAIDHKIESDTEETQDTSVDHNETGNTGESSVEENEKQQNASESKLELRNNSNTCNIENELEDSRKTTACTELRDKIACNGDASSSQIIHISDENEGKEMCVLRMTRARRSQVEQQQLITVEKALAILSQPTPSLVVDHERLKNLLKTVVKKSQNYNIFQLENLYAVISQCIYRHRKDHDKTSLIQKMEQEVENFSCSR

competition with HDAC1 for interaction with H4K5,12diac: competes
B2: WT ATAD2: recombinant FLAG-tagged full length ATAD2 purified from HEK 293 cells (protein)
chain: MVVLRSSLELHNHSAASATGSLDLSSDFLSLEHIGRRRLRSAGAAQKKPAATTAKAGDGSSVKEVETYHRTRALRSLRKDAQNSSDSSFEKNVEITEQLANGRHFTRQLARQQADKKKEEHREDKVIPVTRSLRARNIVQSTEHLHEDNGDVEVRRSCRIRSRYSGVNQSMLFDKLITNTAEAVLQKMDDMKKMRRQRMRELEDLGVFNETEESNLNMYTRGKQKDIQRTDEETTDNQEGSVESSEEGEDQEHEDDGEDEDDEDDDDDDDDDDDDDDEDDEDEEDGEEENQKRYYLRQRKATVYYQAPLEKPRHQRKPNIFYSGPASPARPRYRLSSAGPRSPYCKRMNRRRHAIHSSDSTSSSSSEDEQHFERRRKRSRNRAINRCLPLNFRKDELKGIYKDRMKIGASLADVDPMQLDSSVRFDSVGGLSNHIAALKEMVVFPLLYPEVFEKFKIQPPRGCLFYGPPGTGKTLVARALANECSQGDKRVAFFMRKGADCLSKWVGESERQLRLLFDQAYQMRPSIIFFDEIDGLAPVRSSRQDQIHSSIVSTLLALMDGLDSRGEIVVIGATNRLDSIDPALRRPGRFDREFLFSLPDKEARKEILKIHTRDWNPKPLDTFLEELAENCVGYCGADIKSICAEAALCALRRRYPQIYTTSEKLQLDLSSINISAKDFEVAMQKMIPASQRAVTSPGQALSTVVKPLLQNTVDKILEALQRVFPHAEFRTNKTLDSDISCPLLESDLAYSDDDVPSVYENGLSQKSSHKAKDNFNFLHLNRNACYQPMSFRPRILIVGEPGFGQGSHLAPAVIHALEKFTVYTLDIPVLFGVSTTSPEETCAQVIREAKRTAPSIVYVPHIHVWWEIVGPTLKATFTTLLQNIPSFAPVLLLATSDKPHSALPEEVQELFIRDYGEIFNVQLPDKEERTKFFEDLILKQAAKPPISKKKAVLQALEVLPVAPPPEPRSLTAEEVKRLEEQEEDTFRELRIFLRNVTHRLAIDKRFRVFTKPVDPDEVPDYVTVIKQPMDLSSVISKIDLHKYLTVKDYLRDIDLICSNALEYNPDRDPGDRLIRHRACALRDTAYAIIKEELDEDFEQLCEEIQESRKKRGCSSSKYAPSYYHVMPKQNSTLVGDKRSDPEQNEKLKTPSTPVACSTPAQLKRKIRKKSNWYLGTIKKRRKISQAKDDSQNAIDHKIESDTEETQDTSVDHNETGNTGESSVEENEKQQNASESKLELRNNSNTCNIENELEDSRKTTACTELRDKIACNGDASSSQIIHISDENEGKEMCVLRMTRARRSQVEQQQLITVEKALAILSQPTPSLVVDHERLKNLLKTVVKKSQNYNIFQLENLYAVISQCIYRHRKDHDKTSLIQKMEQEVENFSCSR
modifications: left off: tagGFP, end not stated, kept
notes: recombinant FLAG-tagged full length ATAD2 purified from HEK 293 cells

competition with HDAC1 for interaction with H4K5,12diac: not
B3: ATPase mutant ATAD2: recombinant full length ATPase inactive mutant ATAD2 (K473T and E532Q) (protein)
chain: B2 chain with K473T, E532Q
modifications: left off: tagGFP, end not stated, kept
